Test results as given in publication PMC2768864.

Target: Ixodes ricinus contact phase inhibitor (Ir-CPI) (Ixodes ricinus) (UniProt Q9GP15)
Assay: SPR

Ka: 3.3e+08 M⁻¹ | ka1 (two-state model, formation of AB): 900000 M⁻¹ s⁻¹ | ka2 (two-state model, forward conformation change): 0.00582 s⁻¹ | kd1 (two-state model, dissociation of AB): 0.00535 s⁻¹ | kd2 (two-state model, backward conformation change): 0.00614 s⁻¹
Substance: plasmin (enzyme)
